According to the nanobody polyreactivity screen of Harvey et al. (2022):

Assay: yeast display, Sf9 membrane polyspecificity reagent, FACS + sequencing; frameworks hold sequencing errors
Summary of the method: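 Polyreactivity labels are assigned by the sorting gate from which each nanobody was recovered. The gates were low and high (top ~1%), set on anti-HA fluorescence for expression and streptavidin fluorescence for reagent binding. Before sorting, galactose-induced (36–48 hours) yeast display cells were stained for 1 hour at 4 °C with 10% biotinylated, detergent-solubilized Sf9 membrane reagent.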

| Sequence | polyreactivity (PSR sort gate) |
| --- | --- |
| QVQLVESGGGLVQAGGSLRLSCAASGGIFSCKAMGWYRQAPGKERELVAAITTRGGSTYYADSVKGRFTISRDNAKNSVYLQMNSLKPEDTAVYYCAAEGYEEFNWGQGTQVTVSS | low polyreactivity |
| QVQLVESGGGLVQEGGSLRLSCAASGSIFKQYAMGWYRQAPGKERELVAAISYSGGTTYYADSVKGRFTISRDNAKNTVYLQMNSMKPEDTAVYYCAAEWWILSYRFDYWGQGTQVTVSS | high polyreactivity |
| QVQLVESGGGLVQAGGSLRLSCAASGRIFSVYAMGWYRQAPGKEREFVASISWRGGRTYYADSVKGRFTISRDNAKNTVYLQMNSLKPEDTAVYYCAAVSYPAVYGFDYWGQGTQVTVSS | high polyreactivity |
| QVQLVESGGGLVQAGGSLRLSCAASGFIFNWNTMGWYRQAPGKERELVATMTGSGGSTYADSVKGRFTISRDNAKNTVYLQMNSLKPEDTAVYYCAATRRSFHKYDYWGQGTQVTVSS | low polyreactivity |
| QVQLVESGGGLVQAGGSLRLSCAASGSTFGAYTMGWYRQAPGKERELVAAISSDGSTYYADSVKGRFTISRDNAKNTVYLQMNSLKPEDTAVYYCNARYHFYGRADYSYYYLFDYWGQGTQVTVSS | low polyreactivity |
| QVQLVESAGGLVQAGGSLRLSCAASGSIFYTYAMGWYRQAPGKERELVAAISGSGTSTYYADSVKGRFTISRDNAKNTVYLQMNSLKPEDTAVYYCATDGGAAWGRYYWDYGYWGQGTQVTVSS | low polyreactivity |
| QVQLVESGGGLVQAGGSLRLSCAASGSIFWGYEMGSYRQAPGKERELVAAINRGGSTYYADSVKGRFTRSRDNAKNTVYLQMNSLKPEDTAVYYCAAGYPSWYYGYPYDSWGQGTQVTVSS | low polyreactivity |
| QVQLVESGGGLVQAGGSLRLSCAASGSTFRYNAMGWYRQAPGKERELVAAISRIGGTTYADSVKGRFTISRDNAKNTVYLQMNSLKPEDTAVYYCARANWGYYGPEYGYWGQGTQVTVSS | low polyreactivity |
| QVQLVESGGGLVQAGGSLRLSCAASGYTFIHNAMGWYRQAPGKERELVAAINRSGGITNYADSVKGRFTISRDNAKNTVYLQMNSLKPEDTAVYYCNADVDPLPPRYLHREVLKEYNYWGQGTQVTVSS | low polyreactivity |
| QVQLVESGGGLVQAGGSLRLSCAASGIFGRNAMGWYRQAPGKERELVAAITGSGGRTYYADSVKGRFTISRDNAKNTVYLQMNSLKPEDTAVSYCAASIPSTHGYAYDYWGQGNQVTVSS | high polyreactivity |
| QVQLVESGGGLVQAGGSLRLSCAASGSTYRPYAMGWYRQAPGKERELVAAITGSGGSTYYADSVKGRFTISRDNAKITDYLQMNSLKPEDTAVYYCNAVSTWRYYYWGQGTQVTVSS | high polyreactivity |
| QVQLVESGGGLVQAGGSLRLSCAASGRTFRANAMGWYRQAPGKERELFAAISKRGGNTYYADSVKGRFTISRDNAKNTVYLQMNSLKPEDTAVYYCADDFICRDYDYWGQGTQVTVSS | high polyreactivity |
| QVQLVEARGGLVQAGGSLRLSCAASGSILRYTMGWYRPAPGKERELVAAITRSGTSTYYADSVKGRFTISRDNAKNTVYLQMNSLKPEDTAVYYCAAREKYASHEYDYWGQGTQVTVSS | high polyreactivity |
| QVQLVESGGGLVQAGGSLRLSCAASGRIFGYNAMGWYREAPGKERELVAAITGSGGSTYYADSVKGRFTISRDNAKNTVYLQMNSLKPEDTAVYYFATAYAVYHVEYGYWGQGTQVTVSS | low polyreactivity |
| QVQRVESGGGLVQAVGSLRLSCAPSGIIIPVKAMGWYRQAPGKERELVAAITTGGSTNYADSVKGRFTISRDNAKNNVYLQMNSLKPEDTAVYYCAADTARTRIFDYWGQGTQVTVSS | low polyreactivity |
| QVQLVESGGGLVQAGGSLRLSSAASGSIFRSYTMGWYRQAPGKERELVAAISGRAGSTYYADAVKGRVTISRDNAKNTVYLQMNSLKPEDTAVYYCAVKLGGRSQSYYWGQGTQVTVSS | high polyreactivity |
| QVQLVESGGGLVQAGASLRLSCAASGSIFDPYAMGWYRQAPGKERQLVAAITYSVGGTTYYADSVKGRFTISRDNAKNTVYLQMNSLKPEDTAVYYCAAEWWGTPFDYWGQGTQVTVSS | high polyreactivity |
| QVQLVESWGGLVQAGGSLRLSCAASGRTFSRYAMGWYRQAPRKERELVAAISSRGGSTYYADSVKGRFTISRDFANNTVYLQMNSLYPEDTAVYYCNADSKVDPYGYDYWGQGTQVTVSS | high polyreactivity |
| QVQLVESGGGLVQAGGSLRFSCAASGLIFGSYTMGWSRQAPGKERELVAGISRGGGITYYADSVKGRFTISRDNAKNTVYLQMNSLKPEDTAVYYCAAGYFSYSPYGSYKFGYWGQGTQVTVSS | high polyreactivity |
| QVQLVESGGGLVQAGGSLRLSCAASGSILHPNGMGWYRQAPGKERELVAAITINGDSTYYADSVKGRFTISRDNAKNTVYLQMNSLKPEDTAVYYCAVDGWPTGWYYYWGQGTQVTVSS | low polyreactivity |
| QVQLVESGGGLVQAGGSLRLSCAASGFIFDQYAMGWYRQAPGKERELVATITSDGDTYYADSVKGRFTISRDNAKNTVYLHMISLKPEDSAVYYCAVEPGPYTTGYDYWGQGTQVTVSS | low polyreactivity |
